Assay results: patent publication US20030017160

T1: GST-Cdc25C, P30307
T1 chain: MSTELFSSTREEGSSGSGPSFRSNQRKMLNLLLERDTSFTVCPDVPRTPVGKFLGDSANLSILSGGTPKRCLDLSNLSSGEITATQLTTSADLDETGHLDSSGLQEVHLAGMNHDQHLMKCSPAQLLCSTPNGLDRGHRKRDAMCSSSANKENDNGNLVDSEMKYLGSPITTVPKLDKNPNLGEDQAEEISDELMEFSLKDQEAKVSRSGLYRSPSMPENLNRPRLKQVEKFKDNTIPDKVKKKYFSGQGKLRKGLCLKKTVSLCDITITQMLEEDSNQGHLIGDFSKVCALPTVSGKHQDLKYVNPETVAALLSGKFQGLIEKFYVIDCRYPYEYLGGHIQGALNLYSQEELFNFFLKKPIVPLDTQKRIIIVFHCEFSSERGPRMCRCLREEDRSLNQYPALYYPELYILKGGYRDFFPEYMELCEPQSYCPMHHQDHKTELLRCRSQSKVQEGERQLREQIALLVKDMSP

B1: GST-Cdc25C (protein)
chain: T1 chain
B2: 6his-Chk1 (protein)
chain: MAVPFVEDWDLVQTLGEGAYGEVQLAVNRVTEEAVAVKIVDMKRAVDCPENIKKEICINKMLNHENVVKFYGHRREGNIQYLFLEYCSGGELFDRIEPDIGMPEPDAQRFFHQLMAGVVYLHGIGITHRDIKPENLLLDERDNLKISDFGLATVFRYNNRERLLNKMCGTLPYVAPELLKRREFHAEPVDVWSCGIVLTAMLAGELPWDQPSDSCQEYSDWKEKKTYLNPWKKIDSAPLALLHKILVENPSARITIPDIKKDRWYNKPLKKGAKRPRVTSGGVSESPSGFSKHIQSNLDFSPVNSASSEENVKYSSSQPEPRTGLSLWDTSPSYIDKLVQGISFSQPTCPDHMLLNSQLLGTPGSSQNPWQRLVKRMTRFFTKLDADKSYQCLKETCEKLGYQWKKSCMNQVTISTTDRRNNKLIFKVNLLEMDDKILVDFRLSKGDGLEFKRHFLKIKGKLIDIVSSQKIWLPAT

Legend:
[1] = molecular target: 6his-Cdc2, P06493
Sequence of 6his-Cdc2, P06493 (P06493 whole entry, looked up): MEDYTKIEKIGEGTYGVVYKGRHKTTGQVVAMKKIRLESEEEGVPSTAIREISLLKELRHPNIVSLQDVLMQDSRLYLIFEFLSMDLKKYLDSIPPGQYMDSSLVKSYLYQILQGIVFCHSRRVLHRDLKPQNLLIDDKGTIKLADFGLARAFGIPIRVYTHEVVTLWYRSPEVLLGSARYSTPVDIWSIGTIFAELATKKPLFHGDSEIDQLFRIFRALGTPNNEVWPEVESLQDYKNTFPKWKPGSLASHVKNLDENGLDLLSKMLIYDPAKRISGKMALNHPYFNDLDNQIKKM

[2] = molecular target: T1, GST-Cdc25C, P30307

| Protein | Cdc2 dephosphorylation by gel-mobility analysis [1] | GST-Cdc25 phosphatase activity (loss of the slower migrating phosphorylated forms of Cdc2 on gel) [2] | phosphorylation with gamma-32P ATP, SDS-PAGE and autoradiography [2] |
| --- | --- | --- | --- |
| B1 | GST-Cdc25 catalyses a reduction in the slower migrating phosphorylated forms of Cdc2 | – | – |
| B2 | – | Prior phosphorylation of GST-Cdc25 by 6his-Chk1 leads to a dose-dependent reduction in GST-Cdc25 activity | GST-Cdc25 was phosphorylated by 6his-Chk1 and by 6his-hCDS1 |
